Test results taken from article PMC3835790, “Statistical Experimental Design Guided Optimization of a One-Pot Biphasic Multienzyme Total Synthesis of Amorpha-4,11-diene” (PLoS ONE, 2013).

Key:
Settings in all cases: 100 mM Tris/HCl pH 7.4, 30°C
purified protein = substrate: CC(O)(CCO)CC(=O)O; test: purified protein
[1] = substrate: C[C@@](O)(CCOP(=O)(O)O)CC(=O)O; test: initial rates, UPLC-(TOF)MS, double-reciprocal plot; format: biochemical, Saccharomyces cerevisiae
From the text: initial rates, UPLC-(TOF)MS, double-reciprocal plot on phosphomevalonate kinase (Erg8)

[2] = substrate: C[C@@](O)(CCOP(=O)(O)OP(=O)(O)O)CC(=O)O; test: as above; format: biochemical, Saccharomyces cerevisiae
From the text: initial rates, UPLC-(TOF)MS, double-reciprocal plot on diphosphomevalonate decarboxylase (Erg19)

B1: mevalonate kinase (Erg12) (Saccharomyces cerevisiae S288C) (protein)
chain: MSLPFLTSAPGKVIIFGEHSAVYNKPAVAASVSALRTYLLISESSAPDTIELDFPDISFNHKWSINDFNAITEDQVNSQKLAKAQQATDGLSQELVSLLDPLLAQLSESFHYHAAFCFLYMFVCLCPHAKNIKFSLKSTLPIGAGLGSSASISVSLALAMAYLGGLIGSNDLEKLSENDKHIVNQWAFIGEKCIHGTPSGIDNAVATYGNALLFEKDSHNGTINTNNFKFLDDFPAIPMILTYTRIPRSTKDLVARVRVLVTEKFPEVMKPILDAMGECALQGLEIMTKLSKCKGTDDEAVETNNELYEQLLELIRINHGLLVSIGVSHPGLELIKNLSDDLRIGSTKLTGAGGGGCSLTLLRRDITQEQIDSFKKKLQDDFSYETFETDLGGTGCCLLSAKNLNKDLKIKSLVFQLFENKTTTKQQIDDLLLPGNTNLPWTS
Protein B1 has a Km (purified protein) of 460 ± 153 µM and a kcat (purified protein) of 5.5 s⁻¹.

B2: phosphomevalonate kinase (Erg8) (Saccharomyces cerevisiae S288C) (protein)
chain: MSELRAFSAPGKALLAGGYLVLDTKYEAFVVGLSARMHAVAHPYGSLQGSDKFEVRVKSKQFKDGEWLYHISPKSGFIPVSIGGSKNPFIEKVIANVFSYFKPNMDDYCNRNLFVIDIFSDDAYHSQEDSVTEHRGNRRLSFHSHRIEEVPKTGLGSSAGLVTVLTTALASFFVSDLENNVDKYREVIHNLAQVAHCQAQGKIGSGFDVAAAAYGSIRYRRFPPALISNLPDIGSATYGSKLAHLVDEEDWNITIKSNHLPSGLTLWMGDIKNGSETVKLVQKVKNWYDSHMPESLKIYTELDHANSRFMDGLSKLDRLHETHDDYSDQIFESLERNDCTCQKYPEITEVRDAVATIRRSFRKITKESGADIEPPVQTSLLDDCQTLKGVLTCLIPGAGGYDAIAVITKQDVDLRAQTANDKRFSKVQWLDVTQADWGVRKEKDPETYLDK
notes: 6xHis-tagged, modified pET-11a, expressed in E. coli, Ni-NTA purified; calculated mass 51520
With B2 the Km [1] was 780 ± 280 µM and the kcat [1] was 22 ± 7 s⁻¹.

B3: diphosphomevalonate decarboxylase (Erg19) (Saccharomyces cerevisiae S288C) (protein)
chain: MTVYTASVTAPVNIATLKYWGKRDTKLNLPTNSSISVTLSQDDLRTLTSAATAPEFERDTLWLNGEPHSIDNERTQNCLRDLRQLRKEMESKDASLPTLSQWKLHIVSENNFPTAAGLASSAAGFAALVSAIAKLYQLPQSTSEISRIARKGSGSACRSLFGGYVAWEMGKAEDGHDSMAVQIADSSDWPQMKACVLVVSDIKKDVSSTQGMQLTVATSELFKERIEHVVPKRFEVMRKAIVEKDFATFAKETMMDSNSFHATCLDSFPPIFYMNDTSKRIISWCHTINQFYGETIVAYTFDAGPNAVLYYLAENESKLFAFIYKLFGSVPGWDKKFTTEQLEAFNHQFESSNFTARELDLELQKDVARVILTQVGSGPQETNESLIDAKTGLPKE
notes: 6xHis-tagged, modified pET-11a, expressed in E. coli, Ni-NTA purified; calculated mass 45181
B3 gave a Km [2] of 190 ± 52 µM and a kcat [2] of 2.8 ± 0.5 s⁻¹.
